According to patent US20110027269A1:
The star is where a group is joined. Biotin = O=C1N[C@H]2[C@H](CS[C@H]2CCCCC(=O)*)N1

Target: 14-3-3 proteins present within the KLCCM
Assay: cell-based or functional assay

B1: biotinylated R18 (peptide)
peptide: Biotin-PHCVPRDLSWLDLEANMCLP-OH
modifications: cysteine pairing not given here
MMP-1 expression in dermal fibroblasts treated with KLCCM (western blot, MMP-1/β-actin ratio): 68.8 % reduction
